In publication PMC9860181 (Plant Communications, 2022):
Where two headings read alike, the source gives them in different places. Each block holds one binder with its values, some of them ahead of it.

Experiments:
UVR8^W285A-Strep II [1] = target: T1, UVR8^W285A-Strep II (A. thaliana, UniProt Q9FN03 1-440, W285A); test: pull-down
T1 sequence: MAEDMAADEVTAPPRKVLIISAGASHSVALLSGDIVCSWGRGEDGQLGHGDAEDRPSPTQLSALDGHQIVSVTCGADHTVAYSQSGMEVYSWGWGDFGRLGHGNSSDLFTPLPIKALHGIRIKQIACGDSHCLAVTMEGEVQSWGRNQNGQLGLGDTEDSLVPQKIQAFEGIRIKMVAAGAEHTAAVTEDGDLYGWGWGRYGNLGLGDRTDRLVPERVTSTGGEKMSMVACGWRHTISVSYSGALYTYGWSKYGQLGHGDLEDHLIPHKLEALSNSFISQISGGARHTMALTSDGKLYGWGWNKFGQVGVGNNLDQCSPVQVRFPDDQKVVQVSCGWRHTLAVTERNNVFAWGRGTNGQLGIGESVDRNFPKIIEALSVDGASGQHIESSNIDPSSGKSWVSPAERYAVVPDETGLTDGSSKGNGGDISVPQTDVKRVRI

[2] = target: the molecule itself; test: SDS-PAGE of dimer and monomer
UVR8^W285A-Strep II [3] = target: T1, UVR8^W285A-Strep II; test: pull-down; remark: listed apart in the source
[4] = target: T2, UVR8^W285A (residues 12–421) (A. thaliana, UniProt Q9FN03 12-421, W285A); test: crystal structure
T2 sequence: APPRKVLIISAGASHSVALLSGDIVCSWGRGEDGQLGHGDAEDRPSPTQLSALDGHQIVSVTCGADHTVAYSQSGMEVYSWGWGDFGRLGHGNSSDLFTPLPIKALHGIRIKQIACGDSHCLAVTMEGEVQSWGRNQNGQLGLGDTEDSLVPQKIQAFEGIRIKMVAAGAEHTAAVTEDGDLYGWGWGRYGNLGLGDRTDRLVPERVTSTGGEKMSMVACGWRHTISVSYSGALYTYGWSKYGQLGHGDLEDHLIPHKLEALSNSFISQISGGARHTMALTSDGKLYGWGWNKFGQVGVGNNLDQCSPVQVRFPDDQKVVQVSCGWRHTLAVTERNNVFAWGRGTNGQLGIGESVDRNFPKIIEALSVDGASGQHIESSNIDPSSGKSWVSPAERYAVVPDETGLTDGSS

binding result (UVR8^W285A-Strep II [1]): binds
B1: REPRESSOR OF UV-B PHOTOMORPHOGENESIS 2 (RUP2), C-terminal 3×Flag (natural protein)
chain: MNTLHPHKQQQEQAQQQEEARYEWDLSLSTVVSSSSSSASDVIGAIEFDPTDNIVATAGISRKIRFYGLPSLLRNNAVSGTGVSFVDQATACEYYICTPAKLSSLRWRPGSGGRVIGSGDYDGVVMEYDLEKRTPVFERDEHGGRRVWSVDYTRHGGASTVGASGSDDGTMQVWDPRCPPEESVGVVRPAGICRSAVCCVEFDPSGGPAVAVGCADRKGYVYDIRKLVDPALTLQGHTKTVSYVRFLDGGTVVTAGTDGCLKLWSVEDGRVIRTYEGHVNNRNFVGLSVWRNGALFGCGSENNRVFVYDRRWGKPVWVDGFEPVGMNSGSDKRFVSSVCWRQSGVDQCTLVAGGSDGVLQVYVGKRKP

B2: UVR8^N396 (residues 1–396) (domain or fragment)
chain: MAEDMAADEVTAPPRKVLIISAGASHSVALLSGDIVCSWGRGEDGQLGHGDAEDRPSPTQLSALDGHQIVSVTCGADHTVAYSQSGMEVYSWGWGDFGRLGHGNSSDLFTPLPIKALHGIRIKQIACGDSHCLAVTMEGEVQSWGRNQNGQLGLGDTEDSLVPQKIQAFEGIRIKMVAAGAEHTAAVTEDGDLYGWGWGRYGNLGLGDRTDRLVPERVTSTGGEKMSMVACGWRHTISVSYSGALYTYGWSKYGQLGHGDLEDHLIPHKLEALSNSFISQISGGWRHTMALTSDGKLYGWGWNKFGQVGVGNNLDQCSPVQVRFPDDQKVVQVSCGWRHTLAVTERNNVFAWGRGTNGQLGIGESVDRNFPKIIEALSVDGASGQHIESSNIDPSS
binding result [2]: binds

binding result (UVR8^W285A-Strep II [3]): binds
B3: REPRESSOR OF UV-B PHOTOMORPHOGENESIS 1 (RUP1), C-terminal 3×Flag (natural protein)
chain: MEALFCSEIPNNNIRSSINDLSSSSSYTWPMIMTSSSSSSSSPTIMNIENIPRCDWDLSLSAVVSSASTGSDAIGAIEFDPTGEIIATGGIARKIRSYRLSSLLESRDDHVTASESYICTPAKLSSLKWRPDFSGRVIGSGDYDGVVTEYDVEKQVPVSERDEHGGRRIWSVDYTLYNGSLIGASGSDDGTVQMWDPRNGGTLEETVRPGGGAAICSVEFDPFGGSSIAVGCADRNAYVYDIRRLVDPLIVLDGHTKTVTYARFMDSHTIVTGSTDGSLKQWDIDNGRRVVRTYRGHVNSRNFVGLSVWRHGGLVVSGSENNQVFVYDKRWEEPVWVCGLGHTNRFGSDRRFVSSVCLRQVDEDWCTLVAGGSDGALEIFSGKQS

binding result [4]: binds
B4: RUP2 (residues 21–366) (domain or fragment)
chain: RYEWDLSLSTVVSSSSSSASDVIGAIEFDPTDNIVATAGISRKIRFYGLPSLLRNNAVSGTGVSFVDQATACEYYICTPAKLSSLRWRPGSGGRVIGSGDYDGVVMEYDLEKRTPVFERDEHGGRRVWSVDYTRHGGASTVGASGSDDGTMQVWDPRCPPEESVGVVRPAGICRSAVCCVEFDPSGGPAVAVGCADRKGYVYDIRKLVDPALTLQGHTKTVSYVRFLDGGTVVTAGTDGCLKLWSVEDGRVIRTYEGHVNNRNFVGLSVWRNGALFGCGSENNRVFVYDRRWGKPVWVDGFEPVGMNSGSDKRFVSSVCWRQSGVDQCTLVAGGSDGVLQVYVGKR
